Measured values as given in publication PMC7027902.

Columns and labels:
[1] = target: soluble biotinylated cognate peptide-MHC of the DMF5 TCR; assay: BLI; Octet RED96; biotinylated pMHC (5 µg/mL) loaded on streptavidin tips; TCR in twofold serial dilutions from 200 nM, 900 s association, 600 s dissociation; PBS with kinetic buffer; 1:1 binding model
[2] = target: soluble biotinylated cognate peptide-MHC of the A6 TCR; assay: as above

Row | Kd [1] [µM] | koff [1] [s⁻¹] | Kd [2] [µM] | koff [2] [s⁻¹] | Substance
1 | 0.0316 | 7.4e-05 |  |  | wild-type DMF5 TCR (soluble α/β heterodimer)
2 |  |  | 0.0083 | 0.000416 | wild-type high-affinity A6 TCR (soluble α/β heterodimer)
